Results from article PMC10004744, “H-rGO-Pd NPs Nanozyme Enhanced Silver Deposition Strategy for Electrochemical Detection of Glypican-3”.

Target: Glypican-3 (GPC3) (UniProt P51654 25-554)
Assay: electrochemical sandwich aptasensor (DPV silver stripping; EIS); GPC3 captured by GPC3 antibody on Au NPs@rGO/SPE; aptamer on H-rGO-Pd NPs; response 0.01-100 ug/mL, LOD 3.30 ng/mL (not a Kd); PBS 0.1 mol/L as electrolyte; probe in Tris-EDTA buffer; 5.0 umol/L GPC3Apt; response time 30 min; incubation temperature tested 4-37 C; pH not given in material
Conditions: protein: commercial; label: adsorbed on H-rGO-Pd NPs nanozyme (signal probe)

Glypican-3 (GPC3), sequence (P51654 25-554): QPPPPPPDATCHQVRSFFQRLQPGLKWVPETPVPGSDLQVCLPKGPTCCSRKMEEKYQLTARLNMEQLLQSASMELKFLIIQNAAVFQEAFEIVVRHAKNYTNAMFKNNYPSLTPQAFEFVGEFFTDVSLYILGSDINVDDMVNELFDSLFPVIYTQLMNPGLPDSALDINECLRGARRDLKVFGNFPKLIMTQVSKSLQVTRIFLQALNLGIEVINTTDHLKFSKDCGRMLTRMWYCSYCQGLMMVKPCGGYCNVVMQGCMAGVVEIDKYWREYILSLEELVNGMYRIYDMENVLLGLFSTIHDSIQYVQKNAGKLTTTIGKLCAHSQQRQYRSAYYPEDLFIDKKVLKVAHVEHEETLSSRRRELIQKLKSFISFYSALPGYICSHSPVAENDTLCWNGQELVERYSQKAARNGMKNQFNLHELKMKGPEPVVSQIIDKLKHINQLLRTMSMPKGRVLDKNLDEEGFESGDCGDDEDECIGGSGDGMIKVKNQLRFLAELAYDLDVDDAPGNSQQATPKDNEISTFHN

TAACGCTGACCTTAGCTGGATTTTACATGTTCCA (ssDNA, 5'-NH2) [GPC3Apt]
binding result: binds
